The values below come from patent US20230365714A1 (published 2023).

B1: IgG1-ROR2-A-HC3LC2-FEAR (antibody, V domains shown)
VH: EVQLLESGGGLVQPGGSLRLSCTVSGFSLSSYSMSWVRQAPGKGLEWIGVIYVNSKTWYANWAKGRFTISKTSTTVYLQMNSLRAEDTATYYCARGDAGYTTNSWLWGQGTLVTVSS
VL: AFELTQSPSSLSASVGDRVTITCQASESIDNYLSWYQQKPGKAPKLLIYQAFKLASGVPSRFRGSGSGTDFTLTISSLQSEDFATYYCQSYSGISTTAFGGGTEVVIK
notes: Humanized variant
B2: IgG1-ROR2-A-HC7LC2-FEAR (antibody, V domains shown)
VH: EVQLLESGGGLVQPGGSLRLSCAASGFSLSSYSMSWVRQAPGKGLEWIGVIYVNSKTWYADSVKGRFTISKDNSKNTVYLQMNSLRAEDTATYYCARGDAGYTTNSWLWGQGTLVTVSS
VL: AFELTQSPSSLSASVGDRVTITCQASESIDNYLSWYQQKPGKAPKLLIYQAFKLASGVPSRFRGSGSGTDFTLTISSLQSEDFATYYCQSYSGISTTAFGGGTEVVIK
notes: Humanized variant
B3: IgG1-ROR2-A-HC3LC1-FEAR (antibody, V domains shown)
VH: EVQLLESGGGLVQPGGSLRLSCTVSGFSLSSYSMSWVRQAPGKGLEWIGVIYVNSKTWYANWAKGRFTISKTSTTVYLQMNSLRAEDTATYYCARGDAGYTTNSWLWGQGTLVTVSS
VL: AFELTQSPSSLSASVGDRVTITCQASESIDNYCSWYQQKPGKAPKLLIYQAFKLASGVPSRFRGSGSGTDFTLTISSLQSEDFATYYCQSYSGISTTAFGGGTEVVIK
notes: Humanized variant
B4: IgG1-ROR2-A-HC5LC4-FEAR (antibody)
heavy: EVQLLESGGGLVQPGGSLRLSCAASGFSLSSYSMSWVRQAPGKGLEWIGVIYVNSKTWYANWAKGRFTISKDNSKNTVYLQMNSLRAEDTATYYCARGDAGYTTNSWLWGQGTLVTVSSASTKGPSVFPLAPSSKSTSGGTAALGCLVKDYFPEPVTVSWNSGALTSGVHTFPAVLQSSGLYSLSSVVTVPSSSLGTQTYICNVNHKPSNTKVDKRVEPKSCDKTHTCPPCPAPEFEGGPSVFLFPPKPKDTLMISRTPEVTCVVVAVSHEDPEVKFNWYVDGVEVHNAKTKPREEQYNSTYRVVSVLTVLHQDWLNGKEYKCKVSNKALPAPIEKTISKAKGQPREPQVYTLPPSREEMTKNQVSLTCLVKGFYPSDIAVEWESNGQPENNYKTTPPVLDSDGSFFLYSRLTVDKSRWQQGNVFSCSVMHEALHNHYTQKSLSLSPGK
VL: DIQLTQSPSSLSASVGDRVTITCQASESIDNYLSWYQQKPGKAPKLLIYQAFKLASGVPSRFRGSGSGTDFTLTISSLQPEDFATYYCQSYSGISTTAFGGGTKVEIK
notes: Humanized variant
B5: IgG1-ROR2-A-HC5LC1-FEAR (antibody, V domains shown)
VH: EVQLLESGGGLVQPGGSLRLSCAASGFSLSSYSMSWVRQAPGKGLEWIGVIYVNSKTWYANWAKGRFTISKDNSKNTVYLQMNSLRAEDTATYYCARGDAGYTTNSWLWGQGTLVTVSS
VL: AFELTQSPSSLSASVGDRVTITCQASESIDNYCSWYQQKPGKAPKLLIYQAFKLASGVPSRFRGSGSGTDFTLTISSLQSEDFATYYCQSYSGISTTAFGGGTEVVIK
notes: Humanized variant
B6: IgG1-ROR2-A-HC4LC4-FEAR (antibody)
heavy: EVQLLESGGGLVQPGGSLRLSCTVSGFSLSSYSMSWVRQAPGKGLEWIGVIYVNSKTWYANWAKGRFTISKDNSKNTVYLQMNSLRAEDTATYYCARGDAGYTTNSWLWGQGTLVTVSSASTKGPSVFPLAPSSKSTSGGTAALGCLVKDYFPEPVTVSWNSGALTSGVHTFPAVLQSSGLYSLSSVVTVPSSSLGTQTYICNVNHKPSNTKVDKRVEPKSCDKTHTCPPCPAPEFEGGPSVFLFPPKPKDTLMISRTPEVTCVVVAVSHEDPEVKFNWYVDGVEVHNAKTKPREEQYNSTYRVVSVLTVLHQDWLNGKEYKCKVSNKALPAPIEKTISKAKGQPREPQVYTLPPSREEMTKNQVSLTCLVKGFYPSDIAVEWESNGQPENNYKTTPPVLDSDGSFFLYSRLTVDKSRWQQGNVFSCSVMHEALHNHYTQKSLSLSPGK
VL: DIQLTQSPSSLSASVGDRVTITCQASESIDNYLSWYQQKPGKAPKLLIYQAFKLASGVPSRFRGSGSGTDFTLTISSLQPEDFATYYCQSYSGISTTAFGGGTKVEIK
notes: Humanized variant
B7: IgG1-ROR2-A-HC5LC2-FEAR (antibody, V domains shown)
VH: EVQLLESGGGLVQPGGSLRLSCAASGFSLSSYSMSWVRQAPGKGLEWIGVIYVNSKTWYANWAKGRFTISKDNSKNTVYLQMNSLRAEDTATYYCARGDAGYTTNSWLWGQGTLVTVSS
VL: AFELTQSPSSLSASVGDRVTITCQASESIDNYLSWYQQKPGKAPKLLIYQAFKLASGVPSRFRGSGSGTDFTLTISSLQSEDFATYYCQSYSGISTTAFGGGTEVVIK
notes: Humanized variant
B8: IgG1-ROR2-A-HC4LC2-FEAR (antibody, V domains shown)
VH: EVQLLESGGGLVQPGGSLRLSCTVSGFSLSSYSMSWVRQAPGKGLEWIGVIYVNSKTWYANWAKGRFTISKDNSKNTVYLQMNSLRAEDTATYYCARGDAGYTTNSWLWGQGTLVTVSS
VL: AFELTQSPSSLSASVGDRVTITCQASESIDNYLSWYQQKPGKAPKLLIYQAFKLASGVPSRFRGSGSGTDFTLTISSLQSEDFATYYCQSYSGISTTAFGGGTEVVIK
notes: Humanized variant
B9: IgG1-ROR2-A-HC3LC3-FEAR (antibody)
heavy: EVQLLESGGGLVQPGGSLRLSCTVSGFSLSSYSMSWVRQAPGKGLEWIGVIYVNSKTWYANWAKGRFTISKTSTTVYLQMNSLRAEDTATYYCARGDAGYTTNSWLWGQGTLVTVSSASTKGPSVFPLAPSSKSTSGGTAALGCLVKDYFPEPVTVSWNSGALTSGVHTFPAVLQSSGLYSLSSVVTVPSSSLGTQTYICNVNHKPSNTKVDKRVEPKSCDKTHTCPPCPAPEFEGGPSVFLFPPKPKDTLMISRTPEVTCVVVAVSHEDPEVKFNWYVDGVEVHNAKTKPREEQYNSTYRVVSVLTVLHQDWLNGKEYKCKVSNKALPAPIEKTISKAKGQPREPQVYTLPPSREEMTKNQVSLTCLVKGFYPSDIAVEWESNGQPENNYKTTPPVLDSDGSFFLYSRLTVDKSRWQQGNVFSCSVMHEALHNHYTQKSLSLSPGK
VL: AFELTQSPSSLSASVGDRVTITCQASESIDNYLSWYQQKPGKAPKLLIYQAFKLASGVPSRFRGSGSGTDFTLTISSLQPEDFATYYCQSYSGISTTAFGGGTKVEIK
notes: Humanized variant
B10: IgG1-ROR2-A-HC5LC3-FEAR (antibody)
heavy: EVQLLESGGGLVQPGGSLRLSCAASGFSLSSYSMSWVRQAPGKGLEWIGVIYVNSKTWYANWAKGRFTISKDNSKNTVYLQMNSLRAEDTATYYCARGDAGYTTNSWLWGQGTLVTVSSASTKGPSVFPLAPSSKSTSGGTAALGCLVKDYFPEPVTVSWNSGALTSGVHTFPAVLQSSGLYSLSSVVTVPSSSLGTQTYICNVNHKPSNTKVDKRVEPKSCDKTHTCPPCPAPEFEGGPSVFLFPPKPKDTLMISRTPEVTCVVVAVSHEDPEVKFNWYVDGVEVHNAKTKPREEQYNSTYRVVSVLTVLHQDWLNGKEYKCKVSNKALPAPIEKTISKAKGQPREPQVYTLPPSREEMTKNQVSLTCLVKGFYPSDIAVEWESNGQPENNYKTTPPVLDSDGSFFLYSRLTVDKSRWQQGNVFSCSVMHEALHNHYTQKSLSLSPGK
VL: AFELTQSPSSLSASVGDRVTITCQASESIDNYLSWYQQKPGKAPKLLIYQAFKLASGVPSRFRGSGSGTDFTLTISSLQPEDFATYYCQSYSGISTTAFGGGTKVEIK
notes: Humanized variant
B11: IgG1-ROR2-A-HC6LC1-FEAR (antibody, V domains shown)
VH: EVQLLESGGGLVQPGGSLRLSCTVSGFSLSSYSMSWVRQAPGKGLEWIGVIYVNSKTWYADSVKGRFTISKDNSKNTVYLQMNSLRAEDTATYYCARGDAGYTTNSWLWGQGTLVTVSS
VL: AFELTQSPSSLSASVGDRVTITCQASESIDNYCSWYQQKPGKAPKLLIYQAFKLASGVPSRFRGSGSGTDFTLTISSLQSEDFATYYCQSYSGISTTAFGGGTEVVIK
notes: Humanized variant
B12: IgG1-ROR2-A-HC4LC1-FEAR (antibody, V domains shown)
VH: EVQLLESGGGLVQPGGSLRLSCTVSGFSLSSYSMSWVRQAPGKGLEWIGVIYVNSKTWYANWAKGRFTISKDNSKNTVYLQMNSLRAEDTATYYCARGDAGYTTNSWLWGQGTLVTVSS
VL: AFELTQSPSSLSASVGDRVTITCQASESIDNYCSWYQQKPGKAPKLLIYQAFKLASGVPSRFRGSGSGTDFTLTISSLQSEDFATYYCQSYSGISTTAFGGGTEVVIK
notes: Humanized variant
B13: IgG1-ROR2-A-HC3LC4-FEAR (antibody)
heavy: EVQLLESGGGLVQPGGSLRLSCTVSGFSLSSYSMSWVRQAPGKGLEWIGVIYVNSKTWYANWAKGRFTISKTSTTVYLQMNSLRAEDTATYYCARGDAGYTTNSWLWGQGTLVTVSSASTKGPSVFPLAPSSKSTSGGTAALGCLVKDYFPEPVTVSWNSGALTSGVHTFPAVLQSSGLYSLSSVVTVPSSSLGTQTYICNVNHKPSNTKVDKRVEPKSCDKTHTCPPCPAPEFEGGPSVFLFPPKPKDTLMISRTPEVTCVVVAVSHEDPEVKFNWYVDGVEVHNAKTKPREEQYNSTYRVVSVLTVLHQDWLNGKEYKCKVSNKALPAPIEKTISKAKGQPREPQVYTLPPSREEMTKNQVSLTCLVKGFYPSDIAVEWESNGQPENNYKTTPPVLDSDGSFFLYSRLTVDKSRWQQGNVFSCSVMHEALHNHYTQKSLSLSPGK
VL: DIQLTQSPSSLSASVGDRVTITCQASESIDNYLSWYQQKPGKAPKLLIYQAFKLASGVPSRFRGSGSGTDFTLTISSLQPEDFATYYCQSYSGISTTAFGGGTKVEIK
notes: Humanized variant
B14: IgG1-ROR2-A-HC6LC2-FEAR (antibody, V domains shown)
VH: EVQLLESGGGLVQPGGSLRLSCTVSGFSLSSYSMSWVRQAPGKGLEWIGVIYVNSKTWYADSVKGRFTISKDNSKNTVYLQMNSLRAEDTATYYCARGDAGYTTNSWLWGQGTLVTVSS
VL: AFELTQSPSSLSASVGDRVTITCQASESIDNYLSWYQQKPGKAPKLLIYQAFKLASGVPSRFRGSGSGTDFTLTISSLQSEDFATYYCQSYSGISTTAFGGGTEVVIK
notes: Humanized variant

Usually Kd stands for the equilibrium constant for the complex coming apart. Read a low Kd as tighter binding. As usually defined, the koff is the rate constant with which the complex falls apart. One may read the kon as the second-order rate constant of association. A low value points to slower complex formation.

The target in the assay is T1, his-tagged ROR2 extracellular domain (ROR2-ECD, G&P Biosciences, cat. no. FCL0192) (human, UniProt Q01974 34-403).
T1 construct: Bought protein; also called human ROR2-ECD; recombinant human ROR2-ECD; not shown: his tag
T1 sequence (Q01974 34-403): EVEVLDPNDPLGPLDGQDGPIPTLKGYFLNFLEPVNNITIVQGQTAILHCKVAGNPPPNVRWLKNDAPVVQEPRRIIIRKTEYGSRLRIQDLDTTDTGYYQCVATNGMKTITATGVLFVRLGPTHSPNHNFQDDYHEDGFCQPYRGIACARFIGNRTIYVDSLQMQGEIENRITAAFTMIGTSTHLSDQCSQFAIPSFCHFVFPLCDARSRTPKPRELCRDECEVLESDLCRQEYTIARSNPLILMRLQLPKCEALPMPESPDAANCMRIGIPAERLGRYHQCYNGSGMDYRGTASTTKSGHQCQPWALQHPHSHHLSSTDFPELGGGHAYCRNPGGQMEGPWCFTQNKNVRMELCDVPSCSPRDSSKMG
In words: BLI (Octet), antibody on anti-human IgG Fc sensor, ROR2-ECD 1.56-100 nM as analyte.
As for B1, the affinity, expressed as Kd, was 1.8 nM; the koff was found to be 0.001 s⁻¹; the kon stood at 560000 M⁻¹ s⁻¹.

B2 registered a Kd of 4.7 nM, an off-rate (koff) of 0.0025 s⁻¹ and a kon of 540000 M⁻¹ s⁻¹.

B3: the Kd is 1.6 nM, the koff was 0.00088 s⁻¹ and the kon was determined as 550000 M⁻¹ s⁻¹.

B4: the Kd amounted to 1.9 nM, the koff is 0.0011 s⁻¹ and the kon worked out at 550000 M⁻¹ s⁻¹.

As for B5, binding was characterised by a dissociation constant (Kd) of 1.6 nM, the dissociation rate constant (koff) amounted to 0.00088 s⁻¹ and the kon amounted to 540000 M⁻¹ s⁻¹.

Regarding B6, binding was put at a Kd of 1.5 nM, the koff was determined as 0.00092 s⁻¹ and the kon is 620000 M⁻¹ s⁻¹.

In turn, B7 returned a Kd of 1.8 nM, a koff of 0.00097 s⁻¹ and a kon of 550000 M⁻¹ s⁻¹.

On to B8, for which binding was characterised by a dissociation constant (Kd) of 1.6 nM, the dissociation rate constant (koff) was determined as 0.00095 s⁻¹ and the kon came to 590000 M⁻¹ s⁻¹.

In turn, B9 showed a Kd of 1.8 nM, a koff of 0.001 s⁻¹ and a kon of 550000 M⁻¹ s⁻¹.

Regarding B10, binding was put at a Kd of 1.7 nM, the koff amounted to 0.00084 s⁻¹ and the kon came to 510000 M⁻¹ s⁻¹.

In the case of B11, the Kd was 3.1 nM, the koff came out at 0.0017 s⁻¹ and the kon worked out at 560000 M⁻¹ s⁻¹.

As for B12, binding was put at a Kd of 2.1 nM, the koff was 0.0011 s⁻¹ and the kon was 540000 M⁻¹ s⁻¹.

B13 came in with a Kd of 1.5 nM, a koff of 0.00087 s⁻¹ and a kon of 580000 M⁻¹ s⁻¹.

B14 yielded a Kd of 3.9 nM, a koff of 0.0022 s⁻¹ and a kon of 560000 M⁻¹ s⁻¹.
